# Measurements: publication PMC4701444 (PLoS ONE, 2016)
# T1: PfAMA1 (Plasmodium falciparum, UniProt Q7KQK5)
# T1 construct: (residues 104–438); hexa-histidine (cleaved yes); made in house; host or cells: insect cells (modified pAcGP67B vector)
# T1 sequence (Q7KQK5 104-438): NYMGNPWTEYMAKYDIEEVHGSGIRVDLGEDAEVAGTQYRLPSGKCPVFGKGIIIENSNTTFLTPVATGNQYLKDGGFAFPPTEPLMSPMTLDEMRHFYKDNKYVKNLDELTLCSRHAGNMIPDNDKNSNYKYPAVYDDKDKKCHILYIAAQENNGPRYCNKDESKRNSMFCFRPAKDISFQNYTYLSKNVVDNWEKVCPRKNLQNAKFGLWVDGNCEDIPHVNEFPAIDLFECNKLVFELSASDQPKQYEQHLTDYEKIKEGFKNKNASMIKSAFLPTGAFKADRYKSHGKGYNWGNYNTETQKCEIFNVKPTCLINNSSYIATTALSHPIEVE
# T2: F*PfRON2sp1 (39 aa) [2021-2059], fluorescein-labeled PfRON2sp1 peptide (Plasmodium falciparum, 5-FAM (5-carboxyfluorescein) on the N-terminus; disulfide cyclized at the two cysteine residues)
# T2 construct: Rhoptry Neck Protein 2 (RON2) of Plasmodium falciparum, residues 2021-2059; also called labeled peptide; labeled probe; source: synthetic peptide, bought: Kinexus (purity ≥ 95%)
# T2 peptide: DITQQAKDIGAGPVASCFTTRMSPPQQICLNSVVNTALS
# B1: PfAMA1 (DI-DII of Plasmodium falciparum Apical Membrane Antigen 1, 3D7, residues 104-438) (domain or fragment)
# chain: T1 sequence (Q7KQK5 104-438)
# notes: codon-optimized synthetic gene; also called native PfAMA1; PfAMA1 DI-DII construct
# Legend:
# PfAMA1 [1] = conditions: Room temp; ref [23]; read-out: SPR Kd; cited from earlier work
# Description: Table 2 Comparison of equilibrium dissociation constants (Kd) of complexes. | column: SPRKd (nM) / Room temp
# ΔDII-PfAMA1 = assay: Isothermal Titration Calorimetry, ΔDII-PfAMA1; assay type: binding, Plasmodium falciparum; conditions: 25°C; ΔDII-PfAMA1 10 μM, PfRON2D3-TRX 110 μM; 20 mM Hepes pH 7.5, 150 mM NaCl; average of two experiments with standard deviation; read-out: ITC Kd
# Experimental: (§1) Purified PfAMA1, ΔDII-PfAMA1, and PfRON2D3-TRX were dialyzed against ITC buffer (20 mM Hepes pH 7.5, 150 mM NaCl) at 4°C. All ITC experiments were carried out at 25°C on a MicroCal iTC200 instrument. The sample cell contained PfAMA1 or ΔDII-PfAMA1 (10 μM), and PfRON2D3-TRX (110 μM) was added in 17 injections of 2.2 μL each. […] Data were processed using Origin software (MicroCal) and the dissociation constants (Kd) were determined using a one binding site model.
# PfAMA1 [2] = target: T1, PfAMA1; assay: Isothermal Titration Calorimetry, PfAMA1; assay type: binding; conditions: ITC, 25°C; which AMA1 construct not stated
# Experimental: as §1
# [3] = target: T2, F*PfRON2sp1 (39 aa) [2021-2059], …; assay: fluorescence polarisation; anisotropy kinetics at 30°C; association: 10 nM labeled probe with 50, 100, 200 nM protein; dissociation: 10 nM preformed complex challenged with 2500 or 5000 nM unlabeled PfRON2sp1; global fit to a one-intermediate model; PBS pH 7.4, at least 0.1% BSA; conditions: both partners purified
# [4] = target: T2, F*PfRON2sp1 (39 aa) [2021-2059], …; assay: fluorescence polarisation; anisotropy kinetics at 25°C; association: 10 nM labeled probe with 50, 100, 200 nM protein; dissociation: 10 nM preformed complex challenged with 2500 or 5000 nM unlabeled PfRON2sp1; global fit to a one-intermediate model; PBS pH 7.4, at least 0.1% BSA; conditions: both partners purified
# [5] = target: T2, F*PfRON2sp1 (39 aa) [2021-2059], …; assay: fluorescence polarisation; anisotropy kinetics at 20°C; association: 10 nM labeled probe with 50, 100, 200 nM protein; dissociation: 10 nM preformed complex challenged with 2500 or 5000 nM unlabeled PfRON2sp1; global fit to a one-intermediate model; PBS pH 7.4, at least 0.1% BSA; conditions: both partners purified
# [6] = target: T2, F*PfRON2sp1 (39 aa) [2021-2059], …; assay: fluorescence polarisation; anisotropy kinetics at 25°C; association: 10 nM labeled probe with 50, 100, 200 nM protein; dissociation: 10 nM preformed complex challenged with 2500 or 5000 nM unlabeled PfRON2sp1; global fit to a one-intermediate model; PBS pH 7.4, at least 0.1% BSA; conditions: both partners purified
# [7] = target: T2, F*PfRON2sp1 (39 aa) [2021-2059], …; assay: as above; conditions: both partners purified
molecule,measurement,setting,value
PfRON2D3: thioredoxin fusion of PfRON2D3 (Asp2021 to Ser2059) produced in E. coli BL21 cells,Kd,PfAMA1 [1],20.3 ± 6.3 nM
same,Kd,ΔDII-PfAMA1,92.6 ± 6.4 nM
"TRX: thioredoxin, injected as a negative control in ITC",binding of TRX negative control,PfAMA1 [2],no detectable binding
B1,complex half-life (calculated from the one-intermediate model),[3],9.07 min
same,complex half-life (experimental),[3],9.23 min
same,"dH (overall, summation of the transition states from the kinetic fit)",[4],-11.6 kcal/mol
same,complex half-life (calculated from the one-intermediate model),[5],28.8 min
same,complex half-life (experimental),[5],27.3 min
same,dH of step 1 (formation of the intermediate),[6],-0.67 kcal/mol
same,complex half-life (calculated from the one-intermediate model),[7],16 min
same,complex half-life (experimental),[7],15 min
